# According to US20240409645A1 (DUALYX, published 2024):
# Where a chain is given by its changes, count along the chain named.
# T1: human common cytokine receptor γ-chain (IL-2Rγ) (human, UniProt P31785 23-262, limits assumed)
# T1 construct: Recombinant human IL-2Rγ protein, coated (ELISA) or amine-coupled to a CM5 chip (SPR); also called hu IL-2R; CD132
# T1 sequence: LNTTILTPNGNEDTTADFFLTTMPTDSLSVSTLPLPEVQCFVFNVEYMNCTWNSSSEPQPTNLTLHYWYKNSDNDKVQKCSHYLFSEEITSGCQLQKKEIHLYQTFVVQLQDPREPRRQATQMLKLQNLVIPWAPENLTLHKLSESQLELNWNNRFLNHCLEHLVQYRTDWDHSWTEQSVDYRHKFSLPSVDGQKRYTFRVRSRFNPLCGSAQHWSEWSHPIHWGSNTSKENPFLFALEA
# T2: mouse common cytokine receptor γ-chain (IL-2Rγ) (mouse, UniProt P34902 23-263, limits assumed)
# T2 construct: Recombinant mouse IL-2Rγ protein; also called mo IL-2R; mouse IL-2R gamma
# T2 sequence (looked up): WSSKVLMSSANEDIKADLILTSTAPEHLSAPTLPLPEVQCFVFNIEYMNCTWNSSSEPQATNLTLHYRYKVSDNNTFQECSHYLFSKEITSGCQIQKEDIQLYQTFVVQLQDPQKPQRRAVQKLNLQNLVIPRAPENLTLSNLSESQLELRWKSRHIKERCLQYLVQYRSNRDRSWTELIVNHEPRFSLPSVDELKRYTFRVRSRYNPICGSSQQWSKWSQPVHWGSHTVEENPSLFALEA
# T3: human IL-2Rβ (human, UniProt P14784 27-240, limits assumed)
# T3 construct: Recombinant human IL-2Rβ protein, coated on ELISA plates or immobilized on a CM5 chip; also called hu IL-2R; interleukin 2 receptor β-chain
# T3 sequence: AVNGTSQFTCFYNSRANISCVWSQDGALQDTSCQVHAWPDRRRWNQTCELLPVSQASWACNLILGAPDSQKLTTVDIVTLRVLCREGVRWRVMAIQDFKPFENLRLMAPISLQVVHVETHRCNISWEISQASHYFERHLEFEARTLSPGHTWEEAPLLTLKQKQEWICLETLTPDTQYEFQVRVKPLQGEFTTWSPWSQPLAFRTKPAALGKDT
# B1: FJ1427_P035MP07H08 (VHH)
# VHH: QVQLVESGGGLVQAGGSLRLSCAASGRTLSRYAMGWFRQAPGKEREFVTANSWGGDTYYADSVQGRFTFSRDNAKNTVYLQMNSLQPEDTAVYYCAAAPTSFATTAYSSSNSYAYWGQGTQVTVSS
# notes: tested as periplasmic extract; also called Clone nr; 640
# B2: FJ1427_P035MP07E10 (VHH)
# VHH: B1 VHH
# notes: tested as periplasmic extract; also called Clone nr; 653
# B3: FJ1427_P035MP07C10 (VHH)
# VHH: QVQLVESGGGLVQAGGSLRLSCAASGRSLSRDAMGWFRQAPGKEREFVAVMSWGGDTFYTDSVEGRFTFSRDNAKNAVYLEMNDLQPEDTAVYYCAAAPTSFATTAYSSSNSYSYWGRGTQVTVSS
# notes: tested as periplasmic extract; also called Clone nr; 651
# B4: FJ1427_P035MP06H02 (VHH)
# VHH: QVQLVESGGGLVQAGGSLRLSCAVSGDVFVRYTMAWFRQAPGKEREFVASVTDSGRTTEYVDSVKGRFTVSRDNAKNTAYLQMNNLKPEDTAVYYCAANTDYFQIRSLDLNTWGQGTQVTVSS
# notes: Soluble VHH in periplasmic extract (P.E.); also called Clone nr
# B5: FJ1427_P035MP06B07 (VHH)
# VHH: B4 VHH with Q1E
# notes: Soluble VHH in periplasmic extract (P.E.); also called Clone nr; 530
# B6: FJ1427_P035MP06G02 (VHH)
# VHH: B4 VHH with Q1E, A23V, G42R, S50V, A79V, L108V, L110N, T112A
# notes: as for B4
# B7: FJ1427_P035MP06B05 (VHH)
# VHH: B4 VHH with V24A, E59D, A79V, D109E, L110F
# notes: as for B4
# B8: FJ1427_P035MP06B09 (VHH)
# VHH: B4 VHH with F29L
# notes: Soluble VHH in periplasmic extract (P.E.); also called Clone nr; 546
# B9: FJ1427_P035MP06C04 (VHH)
# VHH: B4 VHH with V5Q, V24A, E59D, A79V, D109E, L110F
# notes: as for B4
# B10: FJ1427_P035MP06F02 (VHH)
# VHH: B4 VHH with V5Q, V24A, E59D, A79V, N85A, R106K
# notes: as for B4
# B11: FJ1427_P035MP06E08 (VHH)
# VHH: B4 VHH with Q1E
# notes: as for B4
# B12: FJ1427_P035MP06A09 (VHH)
# VHH: B4 VHH with Q1E, V24A, E59D, A79V, R106K, L110R
# notes: as for B4
# B13: FJ1427_P035MP06E06 (VHH)
# VHH: B4 VHH with Q1E, S21F, N77D
# notes: Soluble VHH in periplasmic extract (P.E.); also called Clone nr; 525
# B14: FJ1427 P035MP06D08 (VHH)
# VHH: B4 VHH with S123L
# notes: Soluble VHH in periplasmic extract (P.E.); also called Clone nr; 540
# B15: FJ1427_P035MP06C05 (VHH)
# VHH: B4 VHH with Q1E, A23V, E44G, S50V, A79V, L108V, L110N, T112A
# notes: as for B4
# B16: FJ1427 P035MP06E03 (VHH)
# VHH: B4 VHH with Q1E, V24A, E59D, A79V, R106K, L110R, S123P
# notes: as for B4
# B17: FJ1427_P035MP06C06 (VHH)
# VHH: B4 VHH with V5Q, A23V, S50V, A79V, L108V, L110N, T112A
# notes: Soluble VHH in periplasmic extract (P.E.); also called Clone nr; 523
# B18: FJ1427_P035MP06D05 (VHH)
# VHH: B4 VHH with A79V, N85S, D109R, L110A
# notes: as for B4
# B19: FJ1427_P035MP06A05 (VHH)
# VHH: B4 VHH with E59D, D62H, A79V, R106K, L110A
# notes: as for B4
# B20: FJ1427_P035MP06D06 (VHH)
# VHH: B4 VHH with Q1E
# notes: as for B4
# B21: FJ1427_P035MP06A06 (VHH)
# VHH: B4 VHH with V2L, S21A, V24L, E59D, D62A, K65Q, A75N, A79V, N85S, L110R
# notes: as for B4
# B22: FJ1427_P035MP06B10 (VHH)
# VHH: B4 VHH with V24A, F29L, V93I
# notes: Soluble VHH in periplasmic extract (P.E.); also called Clone nr; 554
# B23: FJ1427 P035MP06C09 (VHH)
# VHH: B4 VHH with Q1E, V24A, A40T, A79V, D109R, L110A
# notes: as for B4
# B24: FJ1427 P035MP06E12 (VHH)
# VHH: B4 VHH with V24A, E59D, A79V, N85A, R106K
# notes: as for B4
# B25: FJ1427_P035MP06F08 (VHH)
# VHH: B4 VHH with V24A, D109N
# notes: Soluble VHH in periplasmic extract (P.E.); also called Clone nr; 542
# B26: FJ1427_P035MP06D07 (VHH)
# VHH: B4 VHH with V24A, V93I
# notes: Soluble VHH in periplasmic extract (P.E.); also called Clone nr; 532
# B27: FJ1427_P035MP06D04 (VHH)
# VHH: B4 VHH with V5Q, A23V, S50V, A79V, L108V, L110N, T112A
# notes: as for B4
# B28: FJ1427 P035MP06F04 (VHH)
# VHH: B4 VHH with A79V, N85S, D109R, L110A
# notes: Soluble VHH in periplasmic extract (P.E.); also called Clone nr; 510
# B29: FJ1427_P035MP06A03 (VHH)
# VHH: B4 VHH with Q1E, V24A, E59D, A79V, D109E, L110F
# notes: as for B4
# B30: FJ1427_P035MP06F06 (VHH)
# VHH: B4 VHH with V24A, E59D, A79V, D109E, L110F
# notes: as for B4
# B31: FJ1427 P035MP06G09 (VHH)
# VHH: B4 VHH with A14P, V24A, E59D, A79V, R106K, L110R
# notes: Soluble VHH in periplasmic extract (P.E.); also called Clone nr; 551
# B32: FJ1427_P035MP06C08 (VHH)
# VHH: B4 VHH with V24A, V93I
# notes: as for B4
# B33: FJ1427_P035MP06D03 (VHH)
# VHH: B4 VHH with V24A, V93I
# notes: Soluble VHH in periplasmic extract (P.E.); also called Clone nr; 500
# B34: FJ1427 P035MP06B06 (VHH)
# VHH: B4 VHH with Q1E, S17P
# notes: as for B4
# Target: T1, human common cytokine receptor γ-chain …
# Assay: P.E. binding ELISA
# Procedure, shortened: (§1)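 Direct-coat ELISA: receptor protein o/n 4° C → 4% Marvel/PBS block 1 h → P.E. 1:5 in 1% Marvel/PBS, 1 h → OD450 vs neg. controls.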
row,PE binding ELISA OD [OD450 nm],Binder
1,0.51,B1
2,0.434,B2
3,0.424,B3

# Target: T2, mouse common cytokine receptor γ-chain …
# Assay: P.E. binding ELISA
# Procedure, shortened: as §1
row,PE binding ELISA OD [OD450 nm],Binder
1,0.047,B1
2,0.047,B2
3,0.074,B3

# Target: T3, human IL-2Rβ
# Assay: SPR off-rate ranking of P.E., human IL-2Rβ immobilized
# Experimental: SPR was performed to determine dissociation rates using Biacore 3000 instrument (GE Healthcare). Briefly, human and mouse IL-2R proteins were immobilized on carboxylmethyl dextran sensor chip (CM5) at approximately 2500 RUs using amine coupling in acetate buffer (GE Healthcare). The VHH-containing P.E. were loaded with a flow rate of 30 uL/min and the off-rates were measured over a 120s period.
row,koff [s⁻¹],Binder
1,0.000171,B4
2,0.000285,B5
3,0.000619,B6
4,0.000871,B7
5,0.00225,B8
6,0.00084,B9
7,0.00037,B10
8,0.000267,B11
9,0.000947,B12
10,0.000241,B13
11,0.000209,B14
12,0.000751,B15
13,0.000745,B16
14,0.000698,B17
15,0.000483,B18
16,0.00118,B19

row,koff [s⁻¹],Binder
1,0.00029,B20
2,0.000631,B21
3,0.00223,B22
4,0.00101,B23
5,0.000496,B24
6,0.000274,B25
7,0.000346,B26
8,0.000621,B27
9,0.000487,B28
10,0.000882,B29
11,0.000935,B30
12,0.000726,B31
13,0.000335,B32
14,0.00029,B33
15,0.000324,B34

# Target: T3, human IL-2Rβ
# Assay: P.E. binding ELISA, human IL-2Rβ coated
# Experimental: In a binding ELISA, human or mouse IL-2Rα, IL-2Rβ and IL-2Rγ proteins were coated directly on maxisorp microtiter plates overnight at 4° C. Free binding sites were blocked using 4% Marvel in PBS for 1 hour. Next, 1:5 dilution of P.E. in 1% Marvel/PBS were added to wells and incubated for 1 hour. […] Binding specificity was determined based on O.D. at 450 nm values compared to negative controls.
row,OD450 nm (P.E. binding ELISA) [OD450 nm],Binder
1,0.371,B4
2,1.01,B5
3,0.677,B6
4,0.617,B7
5,0.329,B8
6,0.187,B9
7,0.278,B10
8,0.359,B11
9,0.192,B12
10,1.45,B13
11,0.836,B14
12,0.58,B15
13,0.57,B16
14,0.255,B17
15,0.304,B18
16,0.149,B19

row,OD450 nm (P.E. binding ELISA) [OD450 nm],Binder
1,0.289,B20
2,0.3,B21
3,0.264,B22
4,0.69,B23
5,0.271,B24
6,0.343,B25
7,0.957,B26
8,0.189,B27
9,1.33,B28
10,0.148,B29
11,0.224,B30
12,0.202,B31
13,0.297,B32
14,1.02,B33
15,1.42,B34

# Target: T1, human common cytokine receptor γ-chain …
# Assay: P.E. off-rate SPR
# Procedure, shortened: (§2)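 Recombinant receptor was amine-coupled in acetate buffer onto a CM5 carboxymethyl dextran chip at approximately 2500 RU. VHH-containing periplasmic extracts were injected at 30 uL/min, and dissociation was followed for 120s to give off-rates.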
row,koff [s⁻¹],Binder
1,0.00303,B1
2,0.0033,B2
3,0.00176,B3

# Target: T2, mouse common cytokine receptor γ-chain …
# Assay: P.E. off-rate SPR
# Procedure, shortened: as §2
row,koff [s⁻¹],Binder
1,0.1,B1
2,0.107,B2
3,0.0132,B3
